Laboratory results as given in paper PMC6628828.

Key:
[1] = molecular target: glutathione transferase P1-1 C101S mutant (human); test: cross-linking
[2] = molecular target: glutathione transferase P1-1 C101S mutant (human); test: ESI-MS
[3] = molecular target: glutathione transferase P1-1 C47S mutant (human); test: cross-linking
[4] = molecular target: glutathione transferase P1-1 C47S mutant (human); test: ESI-MS

| relative abundance of peak L (C101S dimer + 2×MeOH) [1] [%] | relative abundance of peak C (C101S dimer) [2] [%] | relative abundance of peak E (C47S dimer + 2×[Pt(NH3)]) [3] [%] | relative abundance of peak F (C47S dimer + 2×[PtCl2] + [Pt(NH3)2]) [3] [%] | relative abundance of peak C (C47S dimer) [4] [%] | Substance |
| --- | --- | --- | --- | --- | --- |
| 18 | 5 | – | – | – | glutathione transferase P1-1 C101S mutant (enzyme) |
| – | – | 54 | 24 | 5 | glutathione transferase P1-1 C47S mutant (enzyme) |
